Experimental data taken from patent US20260070987A1.
Positions count from the first letter of the chain named. Names and notes keep the numbering of the source.

B1: equine IgG1 G426N (antibody, part only; not given: variable domains, not shown: another chain or arm of the molecule)
constant: ASTTAPKVFALAPGCGTTSDSTVALGCLVSGYFPEPVKVSWNSGSLTSGVHTFPSVLQSSGFYSLSSMVTVPASTWTSETYICNVVHAASNFKVDKRIEPIPDNHQKVCDMSKCPKCPAPELLGGPSVFIFPPNPKDTLMITRTPEVTCVVVDVSQENPDVKFNWYMDGVEVRTATTRPKEEQFNSTYRVVSVLRIQHQDWLSGKEFKCKVNNQALPQPIERTITKTKGRSQEPQVYVLAPHPDELSKSKVSVTCLVKDFYPPEINIEWQSNGQPELETKYSTTQAQQDSDGSYFLYSKLSVDRNRWQQGTTFTCNVMHEALHNHYTQKNVSKNPGK
B2: equine IgG1 G426P (antibody, part only; not given: variable domains, not shown: another chain or arm of the molecule)
constant: B1 constant with N316P
B3: equine IgG1 M428F (antibody, part only; not given: variable domains, not shown: another chain or arm of the molecule)
constant: B1 constant with N316G, M318F
B4: equine IgG1 G426V (antibody, part only; not given: Variable domains, not shown: another chain or arm of the molecule)
constant: B1 constant with N316V
B5: equine IgG1 T286C (antibody, part only; not given: variable domains, not shown: another chain or arm of the molecule)
constant: B1 constant with T174C, N316G
B6: equine IgG1 M428A (antibody, part only; not given: variable domains, not shown: another chain or arm of the molecule)
constant: B1 constant with N316G, M318A
B7: equine IgG1 N434C (antibody, part only; not given: variable domains, not shown: another chain or arm of the molecule)
constant: B1 constant with N316G, N324C
B8: equine IgG1 G426T (antibody, part only; not given: variable domains, not shown: another chain or arm of the molecule)
constant: B1 constant with N316T
B9: equine IgG1 G426R (antibody, part only; not given: variable domains, not shown: another chain or arm of the molecule)
constant: B1 constant with N316R
B10: equine IgG1 M428I (antibody, part only; not given: variable domains, not shown: another chain or arm of the molecule)
constant: B1 constant with N316G, M318I
B11: equine IgG1 M428Q (antibody, part only; not given: Variable domains, not shown: another chain or arm of the molecule)
constant: B1 constant with N316G, M318Q
B12: equine IgG1 M428N (antibody, part only; not given: Variable domains, not shown: another chain or arm of the molecule)
constant: B1 constant with N316G, M318N
B13: equine IgG1 N434E (antibody, part only; not given: variable domains, not shown: another chain or arm of the molecule)
constant: B1 constant with N316G, N324E
B14: equine IgG1 M428H (antibody, part only; not given: variable domains, not shown: another chain or arm of the molecule)
constant: B1 constant with N316G, M318H
B15: equine IgG1 M428E (antibody, part only; not given: variable domains, not shown: another chain or arm of the molecule)
constant: B1 constant with N316G, M318E
B16: equine IgG1 M428T (antibody, part only; not given: variable domains, not shown: another chain or arm of the molecule)
constant: B1 constant with N316G, M318T
B17: equine IgG1 M428Y (antibody, part only; not given: variable domains, not shown: another chain or arm of the molecule)
constant: B1 constant with N316G, M318Y
B18: equine IgG1 M428G (antibody, part only; not given: variable domains, not shown: another chain or arm of the molecule)
constant: B1 constant with N316G, M318G
B19: equine IgG1 M428C (antibody, part only; not given: variable domains, not shown: another chain or arm of the molecule)
constant: B1 constant with N316G, M318C
B20: equine IgG1 G426Y (antibody, part only; not given: variable domains, not shown: another chain or arm of the molecule)
constant: B1 constant with N316Y
B21: equine IgG1 G426W (antibody, part only; not given: variable domains, not shown: another chain or arm of the molecule)
constant: B1 constant with N316W
B22: equine IgG1 M428V (antibody, part only; not given: variable domains, not shown: another chain or arm of the molecule)
constant: B1 constant with N316G, M318V
B23: equine IgG1 M428W (antibody, part only; not given: variable domains, not shown: another chain or arm of the molecule)
constant: B1 constant with N316G, M318W
B24: equine IgG1 M428L (antibody, part only; not given: variable domains, not shown: another chain or arm of the molecule)
constant: B1 constant with N316G, M318L
B25: equine IgG1 G426Q (antibody, part only; not given: variable domains, not shown: another chain or arm of the molecule)
constant: B1 constant with N316Q
B26: equine IgG1 M428K (antibody, part only; not given: variable domains, not shown: another chain or arm of the molecule)
constant: B1 constant with N316G, M318K
B27: equine IgG1 G426S (antibody, part only; not given: variable domains, not shown: another chain or arm of the molecule)
constant: B1 constant with N316S
B28: equine IgG1 N434A (antibody, part only; not given: Variable domains, not shown: another chain or arm of the molecule)
constant: B1 constant with N316G, N324A
B29: equine IgG1 T286A (antibody, part only; not given: Variable domains, not shown: another chain or arm of the molecule)
constant: B1 constant with T174A, N316G
B30: equine IgG7 wild-type (antibody, part only; not given: variable domains; allotype unstated, not shown: another chain or arm of the molecule)
constant: ASTTAPKVFPLASHSAATSGSTVALGCLVSSYFPEPVTVSWNSGALTSGVHTFPSVLQSSGLYSLSSMVTVPASSLKSQTYICNVAHPASSTKVDKKIVIKECGGCPTCPECLSVGPSVFIFPPKPKDVLMISRTPTVTCVVVDVGHDFPDVQFNWYVDGVETHTATTEPKQEQNNSTYRVVSILAIQHKDWLSGKEFKCKVNNQALPAPVQKTISKPTGQPREPQVYVLAPHRDELSKNKVSVTCLVKDFYPTDIDIEWKSNGQPEPETKYSTTPAQLDSDGSYFLYSKLTVETNRWQQGTTFTCAVMHEALHNHYTEKSVSKSPGK
B31: equine IgG7 K311G mutant (antibody, part only; not given: variable domains, not shown: another chain or arm of the molecule)
constant: B30 constant with K190G
B32: equine IgG7 K311C mutant (antibody, part only; not given: variable domains, not shown: another chain or arm of the molecule)
constant: B30 constant with K190C
B33: equine IgG7 K311A mutant (antibody, part only; not given: Variable domains, not shown: another chain or arm of the molecule)
constant: B30 constant with K190A
B34: equine IgG7 K311E mutant (antibody, part only; not given: variable domains, not shown: another chain or arm of the molecule)
constant: B30 constant with K190E
B35: equine IgG7 K311I mutant (antibody, part only; not given: variable domains, not shown: another chain or arm of the molecule)
constant: B30 constant with K190I
B36: equine IgG7 K311H mutant (antibody, part only; not given: Variable domains, not shown: another chain or arm of the molecule)
constant: B30 constant with K190H
B37: equine IgG7 K311N mutant (antibody, part only; not given: variable domains, not shown: another chain or arm of the molecule)
constant: B30 constant with K190N
B38: equine IgG7 K311F mutant (antibody, part only; not given: variable domains, not shown: another chain or arm of the molecule; small tags and cut ends)
constant: B30 constant with K190F
B39: equine IgG7 K311D mutant (antibody, part only; not given: Variable domains, not shown: another chain or arm of the molecule)
constant: B30 constant with K190D
B40: equine IgG7 K311M mutant (antibody, part only; not given: variable domains, not shown: another chain or arm of the molecule)
constant: B30 constant with K190M
B41: equine IgG7 K311L mutant (antibody, part only; not given: variable domains, not shown: another chain or arm of the molecule)
constant: B30 constant with K190L

What follows are binders tested against equine FcRn (large alpha subunit p51) / equine beta-2-microglobulin complex, biotinylated (equine) (UniProt P30441) (assay: SPR (Biacore), pH 6).
UniProt P30441, sequence (P30441 21-118, one chain of several): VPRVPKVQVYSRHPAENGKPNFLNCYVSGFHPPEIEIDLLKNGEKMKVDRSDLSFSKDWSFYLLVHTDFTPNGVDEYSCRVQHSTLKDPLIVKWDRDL
B1 was tested, and the Kd was 10.3 nM.
With B2 the Kd was 23.9 nM.
B3 showed a Kd of 17.3 nM.
In the case of B4, the Kd is reported as 8.79 nM.
In the case of B5, the Kd is reported as 35.4 nM.
B6 gave a Kd of 76 nM.
In the case of B7, the Kd is reported as 42.6 nM.
B8 gave a Kd of 9.73 nM.
B9 showed a Kd of 10.3 nM.
Binder B10 has a Kd of 28 nM.
With B11 the Kd was 32.9 nM.
B12 was tested, and the Kd was 51.6 nM.
B13 was tested, and the Kd was 50.6 nM.
B14 gave a Kd of 33.1 nM.
With B15 the Kd was 43.9 nM.
B16 showed a Kd of 34.8 nM.
B17 showed a Kd of 17 nM.
Work on B18 yielded a Kd of 48.8 nM.
For B19, the Kd was 47.5 nM.
In the case of B20, the Kd is reported as 11.9 nM.
With B21 the Kd was 14.7 nM.
In the case of B22, the Kd is reported as 65.8 nM.
B23 was tested, and the Kd was 31.9 nM.
With B24 the Kd was 8.76 nM.
Work on B25 yielded a Kd of 9.01 nM.
B26 gave a Kd of 28.7 nM.
B27 gave a Kd of 8.97 nM.
Binder B28 has a Kd of 6.54 nM.
B29 gave a Kd of 18.5 nM.

The binders below were run against equine FcRn (large alpha subunit p51) in complex with equine beta-2-microglobulin (equine) (UniProt F6XZ61) (assay: SPR (Biacore), pH 6).
UniProt F6XZ61, sequence (F6XZ61 entry or part of it, one chain of several): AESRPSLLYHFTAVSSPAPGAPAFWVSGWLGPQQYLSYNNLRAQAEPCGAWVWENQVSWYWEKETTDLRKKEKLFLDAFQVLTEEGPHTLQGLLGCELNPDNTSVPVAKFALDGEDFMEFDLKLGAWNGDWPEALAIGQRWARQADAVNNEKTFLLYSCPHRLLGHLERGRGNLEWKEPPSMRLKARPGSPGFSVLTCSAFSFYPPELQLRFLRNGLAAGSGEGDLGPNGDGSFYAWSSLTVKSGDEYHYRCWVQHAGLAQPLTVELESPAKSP
B30 was tested, and the Kd was 21.7 nM.
With B31 the Kd was 20.9 nM.
In the case of B32, the Kd is reported as 15.9 nM.
Binder B33 has a Kd of 24.4 nM.
Work on B34 yielded a Kd of 60 nM.
Work on B35 yielded a Kd of 15.1 nM.
With B36 the Kd was 19 nM.
In the case of B37, the Kd is reported as 38 nM.
B38 gave a Kd of 20.5 nM.
B39 was tested, and the Kd was 34.1 nM.
Work on B40 yielded a Kd of 10.4 nM.
For B41, the Kd was 17.3 nM.
